# Data taken from US20040197853A1.
substance,measurement,setting,value
MTCS (enzyme),In vitro Reactivity with IgG,IgG antibody,< 5%
same,In vitro Reactivity with IgE,monoclonal IgE antibody,< 5%
